Reference: patent US20260167721A1 (ABLEXIS, published 2026)

Columns and labels:
[1] = molecular target: T1, human CD3 (TCR/CD3 complex on the cell surface) (human, UniProt P07766 23-207; P04234 22-171; P09693 23-182); assay: flow cytometry, Pan-T cells, 1 ug/mL
T1 construct: whole, on cells; Native CD3 on human Pan-T cells or Jurkat wild-type cells; also called CD3 on Pan-T cells; CD3 on Jurkat WT cells

[2] = molecular target: T1, human CD3 (TCR/CD3 complex on the cell …); assay: flow cytometry, Pan-T cells, 10 ug/mL
[3] = molecular target: T1, human CD3 (TCR/CD3 complex on the cell …); assay: flow cytometry, Jurkat WT cells, 1 ug/mL
[4] = molecular target: T1, human CD3 (TCR/CD3 complex on the cell …); assay: flow cytometry, Jurkat WT cells, 10 ug/mL
[5] = molecular target: T1, human CD3 (TCR/CD3 complex on the cell …); assay: flow cytometry, Jurkat WT gMFI over Jurkat KO gMFI, 1 ug/mL
[6] = molecular target: T1, human CD3 (TCR/CD3 complex on the cell …); assay: flow cytometry, Jurkat WT gMFI over Jurkat KO gMFI, 10 ug/mL

T1 sequence (P07766 23-207, chain 1 of 3): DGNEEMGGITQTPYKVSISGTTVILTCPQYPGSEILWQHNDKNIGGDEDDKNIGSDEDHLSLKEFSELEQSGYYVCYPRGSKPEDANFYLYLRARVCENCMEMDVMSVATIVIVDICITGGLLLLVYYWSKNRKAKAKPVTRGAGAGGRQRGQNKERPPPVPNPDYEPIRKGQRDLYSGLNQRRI
T1 sequence (P04234 22-171, chain 2 of 3): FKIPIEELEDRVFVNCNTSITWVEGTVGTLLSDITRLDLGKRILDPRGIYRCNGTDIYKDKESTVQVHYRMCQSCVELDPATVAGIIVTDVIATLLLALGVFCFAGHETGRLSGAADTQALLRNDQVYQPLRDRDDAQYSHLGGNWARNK
T1 sequence (P09693 23-182, chain 3 of 3): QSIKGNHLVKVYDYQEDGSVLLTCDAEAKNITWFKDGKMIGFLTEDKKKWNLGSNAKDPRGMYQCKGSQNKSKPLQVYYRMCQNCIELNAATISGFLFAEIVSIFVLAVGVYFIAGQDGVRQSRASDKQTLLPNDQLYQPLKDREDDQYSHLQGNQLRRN

| Binder | % Positive [1] [%] | gMFI [1] [gMFI] | % Positive [2] [%] | gMFI [2] [gMFI] | gMFI [3] [gMFI] | gMFI [4] [gMFI] | Jurkat WT/KO (Fold) [5] [fold] | Jurkat WT/KO (Fold) [6] [fold] |
| --- | --- | --- | --- | --- | --- | --- | --- | --- |
| CD3 × CD33-BspAb77 (bispecific antibody) chain 1: EVQLVESGGGLVKPGGSLRLSCAASGFTFSTYIMNWVRQAPGKCLEWVSSISSSRSYIYYADSVKGRFTISRDNAKNSLYLQMNSLRAEDTAVYYCAREDRYRLFFDYWGQGTLVTVSSGGGGSGGGGSGGGGSGGGGSNFMLTQPHSVSESPGKTVTISCTRSSGSIASNYVQWYQQRPGSSPTTVIYEDNQRPSGVPDRFSGSIDSSSNSASLTISGLKTEDEADYYCQSYDSSNRVFGCGTKLTVLDKTHTCPPCPAPEFEGGPSVFLFPPKPKDTLMISRTPEVTCVVVDVSHEDPEVKFNWYVDGVEVHNAKTKPREEQYNSTYRVVSVLTVLHQDWLNGKEYKCKVSNKALPASIEKTISKAKGQPREPQVYTLPPCREEMTKNQVSLWCLVKGFYPSDIAVEWESNGQPENNYKTTPPVLDSDGSFFLYSKLTVDKSRWQQGNVFSCSVMHEALHNHYTQKSLSLSPGK chain 2: EVQLVQSGAEVKKPGSSVKVSCKASGYTITDSNIHWVRQAPGQSLEWIGYIYPYNGGTDYNQKFKNRATLTVDNPTNTAYMELSSLRSEDTAFYYCVNGNPWLAYWGQGTLVTVSSASTKGPSVFPLAPSSKSTSGGTAALGCLVKDYFPEPVTVSWNSGALTSGVHTFPAVLQSSGLYSLSSVVTVPSSSLGTQTYICNVNHKPSNTKVDKRVEPKSCDKTHTCPPCPAPEFEGGPSVFLFPPKPKDTLMISRTPEVTCVVVDVSHEDPEVKFNWYVDGVEVHNAKTKPREEQYNSTYRVVSVLTVLHQDWLNGKEYKCKVSNKALPASIEKTISKAKGQPREPQVCTLPPSREEMTKNQVSLSCAVKGFYPSDIAVEWESNGQPENNYKTTPPVLDSDGSFFLVSKLTVDKSRWQQGNVFSCSVMHEALHNRFTQKSLSLSPGK chain 3: DIQLTQSPSTLSASVGDRVTITCRASESLDNYGIRFLTWFQQKPGKAPKLLMYAASNQGSGVPSRFSGSGSGTEFTLTISSLQPDDFATYYCQQTKEVPWSFGQGTKVEVKRTVAAPSVFIFPPSDEQLKSGTASVVCLLNNFYPREAKVQWKVDNALQSGNSQESVTEQDSKDSTYSLSSTLTLSKADYEKHKVYACEVTHQGLSSPVTKSFNRGEC | 92.5 | 37800 | 99.8 | 188000 | 8960 | 22100 | 3.6 | 8.6 |
| CD3 × CD33-BspAb78 (bispecific antibody) chain 1: EVQLVESGGGLVKFGGSLRLSCAASGFTFSRYSMNWVRQAPGKCLEWVSSISSSSSYKYYADSVKGRFTISRDNAKNSLYLQMNSLRAEDTAVYYCAREGGNSHGMDVWGQGTTVTVSSGGGGSGGGGSGGGGSGGGGSNFMLTQPHSVSESPGKTVTISCTRSSGSIASNYVQWYQQRPGSSPTTVIYEDNQRPSGVPDRFSGSIDSSSNSASLTISGLKTEDEADYYCQSYDSSNRVFGCGTKLTVLDKTHTCPPCPAPEFEGGPSVFLFPPKPKDTLMISRTPEVTCVVVDVSHEDPEVKFNWYVDGVEVHNAKTKPREEQYNSTYRVVSVLTVLHQDWLNGKEYKCKVSNKALPASIEKTISKAKGQPREPQVYTLPPCREEMTKNQVSLWCLVKGFYPSDIAVEWESNGQPENNYKTTPPVLDSDGSFFLYSKLTVDKSRWQQGNVFSCSVMHEALHNHYTQKSLSLSPGK chain 2: EVQLVQSGAEVKKPGSSVKVSCKASGYTITDSNIHWVRQAPGQSLEWIGYIYPYNGGTDYNQKFKNRATLTVDNPTNTAYMELSSLRSEDTAFYYCVNGNPWLAYWGQGTLVTVSSASTKGPSVFPLAPSSKSTSGGTAALGCLVKDYFPEPVTVSWNSGALTSGVHTFPAVLQSSGLYSLSSVVTVPSSSLGTQTYICNVNHKPSNTKVDKRVEPKSCDKTHTCPPCPAPEFEGGPSVFLFPPKPKDTLMISRTPEVTCVVVDVSHEDPEVKFNWYVDGVEVHNAKTKPREEQYNSTYRVVSVLTVLHQDWLNGKEYKCKVSNKALPASIEKTISKAKGQPREPQVCTLPPSREEMTKNQVSLSCAVKGFYPSDIAVEWESNGQPENNYKTTPPVLDSDGSFFLVSKLTVDKSRWQQGNVFSCSVMHEALHNRFTQKSLSLSPGK chain 3: DIQLTQSPSTLSASVGDRVTITCRASESLDNYGIRFLTWFQQKPGKAPKLLMYAASNQGSGVPSRFSGSGSGTEFTLTISSLQPDDFATYYCQQTKEVPWSFGQGTKVEVKRTVAAPSVFIFPPSDEQLKSGTASVVCLLNNFYPREAKVQWKVDNALQSGNSQESVTEQDSKDSTYSLSSTLTLSKADYEKHKVYACEVTHQGLSSPVTKSFNRGEC | 98 | 66500 | 99.8 | 225000 | 20300 | 28800 | 6.6 | 9.9 |

More lines, now with the values ahead:

| % Positive [1] [%] | gMFI [1] [gMFI] | % Positive [2] [%] | gMFI [2] [gMFI] | gMFI [3] [gMFI] | gMFI [4] [gMFI] | Jurkat WT/KO (Fold) [5] [fold] | Jurkat WT/KO (Fold) [6] [fold] | Binder |
| --- | --- | --- | --- | --- | --- | --- | --- | --- |
| 99.3 | 34700 | 99.4 | 166000 | 8830 | 20400 | 4 | 8.9 | CD3 × CD33-BspAb79 (bispecific antibody) chain 1: QVQLQESGPGLVKPSETLSLTCTVSGGSISSYYWSWIRQPAGKCLEWIGRIYASGSTYYNPSLKSRVTMSVDTSKNQFSLKLSSVTAADTAVYYCAREKRSRLYFDYWGQGTLVTVSSGGGGSGGGGSGGGGSGGGGSNFMLTQPHSVSESPGKTVTISCTRSSGSIASNYVQWYQQRPGSSPTTVIYEDNQRPSGVPDRFSGSIDSSSNSASLTISGLKTEDEGDYYCQSYDRSNRVFGCGTKLTVLDKTHTCPPCPAPEFEGGPSVFLFPPKPKDTLMISRTPEVTCVVVDVSHEDPEVKFNWYVDGVEVHNAKTKPREEQYNSTYRVVSVLTVLHQDWLNGKEYKCKVSNKALPASIEKTISKAKGQPREPQVYTLPPCREEMTKNQVSLWCLVKGFYPSDIAVEWESNGQPENNYKTTPPVLDSDGSFFLYSKLTVDKSRWQQGNVFSCSVMHEALHNHYTQKSLSLSPGK chain 2: EVQLVQSGAEVKKPGSSVKVSCKASGYTITDSNIHWVRQAPGQSLEWIGYIYPYNGGTDYNQKFKNRATLTVDNPTNTAYMELSSLRSEDTAFYYCVNGNPWLAYWGQGTLVTVSSASTKGPSVFPLAPSSKSTSGGTAALGCLVKDYFPEPVTVSWNSGALTSGVHTFPAVLQSSGLYSLSSVVTVPSSSLGTQTYICNVNHKPSNTKVDKRVEPKSCDKTHTCPPCPAPEFEGGPSVFLFPPKPKDTLMISRTPEVTCVVVDVSHEDPEVKFNWYVDGVEVHNAKTKPREEQYNSTYRVVSVLTVLHQDWLNGKEYKCKVSNKALPASIEKTISKAKGQPREPQVCTLPPSREEMTKNQVSLSCAVKGFYPSDIAVEWESNGQPENNYKTTPPVLDSDGSFFLVSKLTVDKSRWQQGNVFSCSVMHEALHNRFTQKSLSLSPGK chain 3: DIQLTQSPSTLSASVGDRVTITCRASESLDNYGIRFLTWFQQKPGKAPKLLMYAASNQGSGVPSRFSGSGSGTEFTLTISSLQPDDFATYYCQQTKEVPWSFGQGTKVEVKRTVAAPSVFIFPPSDEQLKSGTASVVCLLNNFYPREAKVQWKVDNALQSGNSQESVTEQDSKDSTYSLSSTLTLSKADYEKHKVYACEVTHQGLSSPVTKSFNRGEC |
| 99.7 | 330000 | 99.8 | 486000 | 50500 | 59400 | 13.1 | 15 | CD3 × CD33-BspAb80 (bispecific antibody) chain 1: QVQLQESGPGLVKPSETLSLTCTVSGGSISSYYWSWIRQPAGKCLEWIGRIYTSGSTKYNPSLKSRVTMSVDTSKNQFSLKLISVTAADTAVYFCARERIRDLYFDYWGQGTLVTVSSGGGGSGGGGSGGGGSGGGGSNFMLTQPHSVSESPGKTVTISCTRTSGSIASNYVQWYQQRPGSSPTTVIYEDNQRPSGVPDRFSGSIDSSSNSASLTISGLKTEDEAAYYCQSYDRSNRVFGCGTKLTVLDKTHTCPPCPAPEFEGGPSVFLFPPKPKDTLMISRTPEVTCVVVDVSHEDPEVKFNWYVDGVEVHNAKTKPREEQYNSTYRVVSVLTVLHQDWLNGKEYKCKVSNKALPASIEKTISKAKGQPREPQVYTLPPCREEMTKNQVSLWCLVKGFYPSDIAVEWESNGQPENNYKTTPPVLDSDGSFFLYSKLTVDKSRWQQGNVFSCSVMHEALHNHYTQKSLSLSPGK chain 2: EVQLVQSGAEVKKPGSSVKVSCKASGYTITDSNIHWVRQAPGQSLEWIGYIYPYNGGTDYNQKFKNRATLTVDNPTNTAYMELSSLRSEDTAFYYCVNGNPWLAYWGQGTLVTVSSASTKGPSVFPLAPSSKSTSGGTAALGCLVKDYFPEPVTVSWNSGALTSGVHTFPAVLQSSGLYSLSSVVTVPSSSLGTQTYICNVNHKPSNTKVDKRVEPKSCDKTHTCPPCPAPEFEGGPSVFLFPPKPKDTLMISRTPEVTCVVVDVSHEDPEVKFNWYVDGVEVHNAKTKPREEQYNSTYRVVSVLTVLHQDWLNGKEYKCKVSNKALPASIEKTISKAKGQPREPQVCTLPPSREEMTKNQVSLSCAVKGFYPSDIAVEWESNGQPENNYKTTPPVLDSDGSFFLVSKLTVDKSRWQQGNVFSCSVMHEALHNRFTQKSLSLSPGK chain 3: DIQLTQSPSTLSASVGDRVTITCRASESLDNYGIRFLTWFQQKPGKAPKLLMYAASNQGSGVPSRFSGSGSGTEFTLTISSLQPDDFATYYCQQTKEVPWSFGQGTKVEVKRTVAAPSVFIFPPSDEQLKSGTASVVCLLNNFYPREAKVQWKVDNALQSGNSQESVTEQDSKDSTYSLSSTLTLSKADYEKHKVYACEVTHQGLSSPVTKSFNRGEC |
